From PMC12065894 (Nature Communications, 2025)

Target: the molecule itself
Assay: crystal structure; contact between molecules of the crystal lattice: the cleaved zymogen activation motif of one protease molecule lies in the substrate binding cleft of a neighbouring one; crystals grown at 18 °C

B1: dasTMPRSS11D (active, autocleaved TMPRSS11D with DDDDK zymogen activation motif) (enzyme)
chain 1: ANWLINECGAGPDLITDDDDK
chain 2: not shown
notes: also called active dasTMPRSS11D; Human Airway Trypsin-like protease
Does B1 bind?
Result: binds
